Results on three molecules are retold here after patent EP0251446B1, “Non-human Carbonyl hydrolase mutants, DNA sequences and vectors encoding same and hosts transformed with said vectors” (GENENCOR INTERNATIONAL, INC., priority 1986, dated 1988).

The target of data set [1] is T1, B. amyloliquefaciens subtilisin deletion mutant S153/S156/A158/G159/S160/Δ161-164/I165/S166/A169/R170 (Bacillus amyloliquefaciens, UniProt P00782, A260S/DEL268-271/E263S/G267S/G273S/G276A/K277R/S266G/T265A/V272I).
T1 construct: made in house
T1 sequence (P00782 with tags, fused parts or gaps A260S/E263S/DEL265-265/S266A/S269I/DEL271-273/G276A/K277R): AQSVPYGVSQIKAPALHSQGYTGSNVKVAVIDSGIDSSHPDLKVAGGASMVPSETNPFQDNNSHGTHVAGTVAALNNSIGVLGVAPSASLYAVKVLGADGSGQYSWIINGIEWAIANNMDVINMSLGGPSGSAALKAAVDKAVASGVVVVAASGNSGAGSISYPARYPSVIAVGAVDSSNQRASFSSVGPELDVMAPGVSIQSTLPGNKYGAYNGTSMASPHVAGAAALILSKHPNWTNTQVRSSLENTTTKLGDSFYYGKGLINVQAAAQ
In words: Kinetics of p-nitroanilide substrate hydrolysis, deletion mutant. It is filed as biochemical. The following applies: Table V; substrate not given; method b166 gives kcat in s-1. The source says:
The effect of deletion of residues 161 through 164 has been shown by comparing the activity of the wild type (WT) enzyme with a mutant enzyme containing this deletion as well as multiple substitutions (i.e., S153/S156/A158/G159/S160/0161-164/1165/S166/A169/R170). This produced the following results:
(§1) Wild-type subtilisin was purified from B. subtilis culture supernatants expressing the B. amyloliquefaciens subtilisin gene (Wells, J.A., et al. (1983) Nucleic Acids Res. 11, 7911-7925) as previously described (Estell, D.A., et al. (1985) J. Biol. Chem. 260, 6518-6521). Details of the synthesis of tetrapeptide substrates having the form succinyl-L-AlaL-AlaL-ProL-[X]-p-nitroanilide (where X is the P1 amino acid) are described by DelMar, E.G., et al. (1979) Anal. Biochem. 99, 316-320. Kinetic parameters, Km(M) and kcat-(s-^1) were measured using a modified progress curve analysis (Estell, D.A., et al. (1985) J. Biol. Chem. 260, 6518-6521). Briefly, plots of rate versus product concentration were fit to the differential form of the rate equation using a non-linear regression algorithm. Errors in kcat and Km for all values reported are less than five percent. The various substrates in Table VIII are ranged in order of decreasing hydrophobicity. Nozaki, Y. (1971), J. Biol. Chem. 246, 2211-2217; Tanford C. (1978) Science 200, 1012).

The target in data set [2] is T2, B. amyloliquefaciens subtilisin, wild type (WT, Gly166) (Bacillus amyloliquefaciens, UniProt P00782).
T2 construct: at various amino acid residues within the mature form of the subtilisin molecule; made in house; host or cells: Bacillus subtilis (secreted, culture supernatant)
T2 sequence (P00782 108-382): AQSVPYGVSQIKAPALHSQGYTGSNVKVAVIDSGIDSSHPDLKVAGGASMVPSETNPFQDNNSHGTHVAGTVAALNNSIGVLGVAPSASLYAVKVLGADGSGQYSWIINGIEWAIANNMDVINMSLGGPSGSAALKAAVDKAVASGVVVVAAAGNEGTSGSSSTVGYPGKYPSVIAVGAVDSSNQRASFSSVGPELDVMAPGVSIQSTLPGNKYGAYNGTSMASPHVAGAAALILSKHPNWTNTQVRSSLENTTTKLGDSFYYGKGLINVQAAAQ
In words: Kinetics of hydrolysis of succinyl-Ala-Ala-Pro-X-p-nitroanilide substrates (progress curve analysis). It is filed as biochemical.
Description: A change in substrate specificity is defined as a difference between the kcat/Km ratio of the precursor carbonyl hydrolase and that of the hydrolase mutant. The kcat/Km ratio is a measure of catalytic efficienty. Carbonyl hydrolase mutants with increased or diminished kcat/Km ratios are described in the examples. Generally, the objective will be to secure a mutant having a greater (numerically large) kcat/Km ratio for a given substrate, thereby enabling the use of the enzyme to more efficiently act on a target substrate. A substantial change in kcat/Km ratio is preferably at least 2-fold increase or decrease. However, smaller increases or decreases in the ratio (e.g., at least 1.5-fold) are also considered substantial. An increase in kcat/Km ratio for one substrate may be accompanied by a reduction in kcat/Km ratio for another substrate. […] Km and kcat are measured in accord with known procedures, as described in EPO Publication No. 0130756 or as described herein.
as §1

Data set [3] concerns the target T3, B. amyloliquefaciens subtilisin variant L217 (Tyr217 to Leu) (Bacillus amyloliquefaciens, UniProt P00782, Y324L).
T3 construct: made in house
T3 sequence (P00782 108-382 Y324L): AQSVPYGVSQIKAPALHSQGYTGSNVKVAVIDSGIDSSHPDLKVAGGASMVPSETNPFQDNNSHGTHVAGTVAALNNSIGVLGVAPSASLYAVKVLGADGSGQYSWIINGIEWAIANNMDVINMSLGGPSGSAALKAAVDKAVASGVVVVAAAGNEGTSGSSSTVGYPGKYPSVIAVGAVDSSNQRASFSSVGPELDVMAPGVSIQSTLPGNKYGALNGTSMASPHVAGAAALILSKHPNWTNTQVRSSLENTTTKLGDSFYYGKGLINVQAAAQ
Nature of the data set: Kinetics of p-nitroanilide substrate hydrolysis, L217. As to conditions: substrate sAAPFpNa. It is filed as biochemical.
Description: as §1
Tyr217 has been substituted by all other 19 amino acids. Cassette mutagenesis as described in EPO publication No. 0130756 was used according to the protocol of Figure 22. The EcoRV restriction site was used for restriction-purification of pA217.
Since this position is involved in substrate binding, mutations here effect kinetic parameters of the enzyme. […]

Substrate in data set [4]: C[C@H](NC(=O)CCC(=O)O)C(=O)N[C@@H](C)C(=O)N1CCC[C@H]1C(=O)N[C@@H](CCC(=O)O)C(=O)Nc1ccc([N+](=O)[O-])cc1
In words: Kinetics of p-nitroanilide substrate hydrolysis, N166. As to conditions: other: Table XIV, 156 Glu / 166 Asn; value in parentheses; synthetic substrate with label as P-1 amino acid. The data set is classed as biochemical, B. amyloliquefaciens.
Description: as §1
(§2) The construction of subtilisin mutants containing the substitution of the ionic amino acids Asp, Asn, Gln, Lys and Ang are disclosed in EPO Publication No. 0130756. The present example describes the construction of the mutant subtilisin containing Glu at position 166 (E166) and presents substrate specificity data on these mutants. Further data on position 166 and 156 single and double mutants is presented infra.
(§3) Each of these mutants was analyzed with the tetrapeptide substrates, succinyl-L-AlaL-AlaProL-X-p-nitroanilide, where X was Phe, Ala and Glu.

Substrate in data set [5]: C[C@H](NC(=O)CCC(=O)O)C(=O)N[C@@H](C)C(=O)N1CCC[C@H]1C(=O)N[C@@H](CCC(N)=O)C(=O)Nc1ccc([N+](=O)[O-])cc1
The description is as above. The data set is classed as biochemical, B. amyloliquefaciens. The following applies: other: Table XIV, 156 Glu / 166 Asn; value in parentheses; synthetic substrate with label as P-1 amino acid.
Description: as §1, §2, §3

Substrate in data set [6]: C[C@H](NC(=O)CCC(=O)O)C(=O)N[C@@H](C)C(=O)N1CCC[C@H]1C(=O)N[C@@H](CCCCN)C(=O)Nc1ccc([N+](=O)[O-])cc1
The data set is described as above. It is filed as biochemical, B. amyloliquefaciens. As to conditions: other: Table XIV, 156 Glu / 166 Asn; value in parentheses; synthetic substrate with label as P-1 amino acid.
Description: as §1, §2, §3

Substrate in data set [7]: CSCC[C@H](NC(=O)[C@@H]1CCCN1C(=O)[C@H](C)NC(=O)[C@H](C)NC(=O)CCC(=O)O)C(=O)Nc1ccc([N+](=O)[O-])cc1
The description is as above. The data set is classed as biochemical, B. amyloliquefaciens. As to conditions: other: Table XIV, 156 Glu / 166 Asn; value in parentheses; synthetic substrate with label as P-1 amino acid.
Description: as §1, §2, §3

Substrate in data set [8]: C[C@H](NC(=O)CCC(=O)O)C(=O)N[C@@H](C)C(=O)N1CCC[C@H]1C(=O)N[C@@H](CCC(=O)O)C(=O)Nc1ccc([N+](=O)[O-])cc1
In words: Kinetics of p-nitroanilide substrate hydrolysis, Q166. It is filed as biochemical, B. amyloliquefaciens. The following applies: other: Table XIV, 156 Glu / 166 Gln; value in parentheses; synthetic substrate with label as P-1 amino acid.
Description: as §1, §2, §3

Substrate in data set [9]: C[C@H](NC(=O)CCC(=O)O)C(=O)N[C@@H](C)C(=O)N1CCC[C@H]1C(=O)N[C@@H](CCC(N)=O)C(=O)Nc1ccc([N+](=O)[O-])cc1
The data set is described as above. It is filed as biochemical, B. amyloliquefaciens. As to conditions: other: Table XIV, 156 Glu / 166 Gln; value in parentheses; synthetic substrate with label as P-1 amino acid.
Description: as §1, §2, §3

Substrate in data set [10]: C[C@H](NC(=O)CCC(=O)O)C(=O)N[C@@H](C)C(=O)N1CCC[C@H]1C(=O)N[C@@H](CCCCN)C(=O)Nc1ccc([N+](=O)[O-])cc1
The data set is described as above. The data set is classed as biochemical, B. amyloliquefaciens. The following applies: other: Table XIV, 156 Glu / 166 Gln; value in parentheses; synthetic substrate with label as P-1 amino acid.
Description: as §1, §2, §3

Substrate in data set [11]: CSCC[C@H](NC(=O)[C@@H]1CCCN1C(=O)[C@H](C)NC(=O)[C@H](C)NC(=O)CCC(=O)O)C(=O)Nc1ccc([N+](=O)[O-])cc1
The description is as above. As to conditions: other: Table XIV, 156 Glu / 166 Gln; value in parentheses; synthetic substrate with label as P-1 amino acid. It is filed as biochemical, B. amyloliquefaciens.
Description: as §1, §2, §3

*1 amine or outer side, *2 acyl side, *3 side chain or, on linkers, in order; H or OH if unused. Where a SMILES comes first, the peptide text is derived from it. The star is where a group is joined. pNA = O=[N+]([O-])c1ccc(N*)cc1; Suc = O=C(CCC(=O)[*:2])[*:1]

Turning to `C[C@H](NC(=O)CCC(=O)O)C(=O)N[C@@H](C)C(=O)N1CCC[C@H]1C(=O)N[C@@H](Cc1ccccc1)C(=O)Nc1ccc([N+](=O)[O-])cc1` [sAAPFpNa, succinyl-L-AlaL-AlaL-ProL-Phep-nitroanilide, reference compound] (Suc-AAPF-pNA), the kcat in data set [1] was 8; in [2] (Table V, substrate not given, method b166 gives kcat in s-1), 50; in data set [2] (Table XIX, WT), 50 s-^1; in data set [3], 277 5'.

B1: B. amyloliquefaciens subtilisin variant N166 (Gly166 to Asn) (Bacillus amyloliquefaciens; G273N) (protein)
chain: AQSVPYGVSQIKAPALHSQGYTGSNVKVAVIDSGIDSSHPDLKVAGGASMVPSETNPFQDNNSHGTHVAGTVAALNNSIGVLGVAPSASLYAVKVLGADGSGQYSWIINGIEWAIANNMDVINMSLGGPSGSAALKAAVDKAVASGVVVVAAAGNEGTSGSSSTVNYPGKYPSVIAVGAVDSSNQRASFSSVGPELDVMAPGVSIQSTLPGNKYGAYNGTSMASPHVAGAAALILSKHPNWTNTQVRSSLENTTTKLGDSFYYGKGLINVQAAAQ
notes: at various amino acid residues within the mature form of the subtilisin molecule; made in house; host or cells: Bacillus subtilis BG2036
In the case of B1, the Michaelis constant (Km) in data set [4] was found to be 6030 µM; in data set [5], 724 µM; in data set [6] it was 1320 µM; in data set [7] it was 141 µM.

B2: B. amyloliquefaciens subtilisin variant Q166 (Gly166 to Gln) (Bacillus amyloliquefaciens; G273Q) (protein)
chain: AQSVPYGVSQIKAPALHSQGYTGSNVKVAVIDSGIDSSHPDLKVAGGASMVPSETNPFQDNNSHGTHVAGTVAALNNSIGVLGVAPSASLYAVKVLGADGSGQYSWIINGIEWAIANNMDVINMSLGGPSGSAALKAAVDKAVASGVVVVAAAGNEGTSGSSSTVQYPGKYPSVIAVGAVDSSNQRASFSSVGPELDVMAPGVSIQSTLPGNKYGAYNGTSMASPHVAGAAALILSKHPNWTNTQVRSSLENTTTKLGDSFYYGKGLINVQAAAQ
notes: as for B1
As for B2, the Km turned out to be 7590 µM in data set [8], 229 µM in [9], 708 µM in data set [10] and 43.7 µM in [11].
